Data published in US20100055739.

Test system: T1, Bli1904II restriction endonuclease (Bacillus licheniformis)
T1 sequence: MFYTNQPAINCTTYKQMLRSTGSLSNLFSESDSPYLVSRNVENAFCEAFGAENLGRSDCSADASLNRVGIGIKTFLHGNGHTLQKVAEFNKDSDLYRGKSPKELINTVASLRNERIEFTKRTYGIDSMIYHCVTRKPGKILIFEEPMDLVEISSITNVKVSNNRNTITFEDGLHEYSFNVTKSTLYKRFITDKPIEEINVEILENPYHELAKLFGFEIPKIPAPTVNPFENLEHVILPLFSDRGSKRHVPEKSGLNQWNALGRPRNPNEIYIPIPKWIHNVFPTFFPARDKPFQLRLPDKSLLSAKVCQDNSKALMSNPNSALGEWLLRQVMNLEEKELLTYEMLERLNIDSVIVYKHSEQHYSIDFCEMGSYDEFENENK
Assay: cell_activity

| Substance | activity (transformants per ug DNA) (restriction of unmethylated plasmid in SJ1904, 6.4e3 in Bli1904II deletion strain MDT269, site inferred from cognate methylase) | activity (transformants per ug DNA) (methylated by M.Bli1904II at GCNGC (C5-cytosine type, position not stated), methylated plasmid not restricted in SJ1904, 7.2e3 in deletion strain MDT269) |
| --- | --- | --- |
| GCNGC (double strand) [pCJ791 plasmid GCNGC sites, unmethylated] | 17 | – |
| GCNGC (double strand) [pCJ791 plasmid GCNGC sites, M.Bli1904II-methylated] | – | 16000 |
